In test [1] the target is MosV-RBPβ (C-terminal six-bladed β-propeller head domain of the Mossman virus receptor-binding protein, Glu202−Thr632) (Mossman virus). Briefly: SEC; Superdex 200 10/30 column, 10 mM Tris pH 8.0, 150 mM NaCl; compared with gel filtration standards; pre- and post-deglycosylation. On the technique in general: SEC sorts molecules by how far they enter the pores of the column.

For test [2] the target is unchanged. Briefly: SEC-SAXS; glycosylated protein, 45 µL at 5 mg/mL on Superdex 200 PC 3.2/30 in TBS, in-line SAXS; curves fitted with monomeric and dimeric crystal models.
Test [3] deals with NarV-RBPβ (C-terminal six-bladed β-propeller head domain of the Nariva virus receptor-binding protein, Glu184−Pro657) (Nariva virus). The experiment in a line: SEC; Superdex 200 10/30 column, 10 mM Tris pH 8.0, 150 mM NaCl; compared with gel filtration standards; pre- and post-deglycosylation.
Test [4] has the same target. Briefly: SEC-SAXS; glycosylated protein, 45 µL at 5 mg/mL on Superdex 200 PC 3.2/30 in TBS, in-line SAXS; curves fitted with monomeric and dimeric crystal models.

A word on the stoichiometry N: it is a count of units in the complex or per binding partner.

Take “MosV-RBPβ (C-terminal six-bladed β-propeller head domain of the Mossman virus receptor-binding protein, Glu202−Thr632) (domain or fragment)”: the stoichiometry N in test [1] and in test [2] was 2 throughout.

As for “NarV-RBPβ (C-terminal six-bladed β-propeller head domain of the Nariva virus receptor-binding protein, Glu184−Pro657) (domain or fragment)”, the stoichiometry N in test [3] and in test [4] was 2 throughout.

For the origin of these results see paper PMC10653815.
